Tested on: MS2 coat protein
Experiment: apparent KD of MS2 coat protein; designed switch direction (-1 OFF switch, 1 ON switch): 1; higher = weaker reporter binding
Summary of the method: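 Stalled E. coli RNA polymerase transcribed designed RNA switches on Illumina chips, which were then titrated with SNAP-549-labelled MS2 coat protein, doubling from 0.7 or 1.5 nM to 3 µM. Steps lasted from 0.8–1.5 h at the lowest concentration to 10–20 min at the highest. The apparent KD is each design's median over clusters of curve-fitted normalised fluorescence.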

[1] = input ligand: microRNA oligo, concentration not stated
[2] = Eterna round: R95, input ligand: FMN 200 uM
[3] = Eterna round: R95, input ligand: microRNA oligo, concentration not stated
[4] = Eterna round: R95, input ligand: none

Row | Sequence | apparent KD of MS2 coat protein (input ligand: FMN 200 uM) [nM] | apparent KD of MS2 coat protein [1] [nM] | apparent KD of MS2 coat protein (input ligand: none) [nM] | apparent KD of MS2 coat protein [2] [nM] | apparent KD of MS2 coat protein [3] [nM] | apparent KD of MS2 coat protein [4] [nM]
1 | GAGCCAGUCCGAGGAUAUUCGUAGUAACACAUGAGGAUCACCCAUGUGGGCUCAGAAGAGCCCUUGGAGAAGGCGGGCUGGCUC [SS-NG2-LRO19] (Eterna round: R96, puzzle: Same State NG 2) | 7.41 | 9.15 | 12.4 |  |  | 
2 | GAGGAUGAUUUACAGGAUAUAUAGCAGAUGACAUGAGGAUCACCCAUGUAAGAGAAAGGAGGGAGAUAGAAGGGUAUGGGAUGUG [JR_SS2_Sub039] (puzzle: Same State 2) |  |  |  | 29.9 | 21.5 | 22.3
3 | GAGGGACAGACCAACAUGAGGAUCACCCAUGUCCUCGCAGGUCAGGAUAUUAUGAGGAUCACCCGUGAGAAGGGACGGUGAAUU (Eterna round: R96, puzzle: Same State NG 3) | 709 | 390 | 804 |  |  | 
4 | GAGGGACAGACCAACAUGAGGAUCACCCAUGUCCUCGCAGGUCAGGAUAUUAUUAGGAUCACCAGUGAGAAGGGACGGUGAACC (Eterna round: R96, puzzle: Same State NG 3) | 755 | 398 | 564 |  |  | 
5 | GAGUAGUACGGAGGAUAUGGGCAGAACAAGACACCAGAAGGCCGACAUGAGGAUGCUGGACAUGAGGAUCACCCAUGUACCUGA [Same State 1 S3] (Eterna round: R96, puzzle: Same State NG 1) | 22.8 | 92.6 | 85.4 |  |  | 
6 | GAGUAGUUGAAAGGAUAUCGAUUGUUAUAGAAUCGAGAAGGUUCUAACAUGAGGAUCACCCAUGUAGGACUAUUCCUGUGUAUC [Parity 77 - Jieux - Same State NG 1] (Eterna round: R96, puzzle: Same State NG 1) |  | 9.75 |  |  |  | 
7 | GAGUGGUGGAGAGGAUAUGCAUUGUUAUUCACUGUAGAAGGUUCUAACAUGAGGAUCACCCAUGUAGGACUAUUCCUGUGUUUU [Parity 58 - Jieux - Same State NG 1] (Eterna round: R96, puzzle: Same State NG 1) |  | 9.4 |  |  |  | 
8 | GAUUAACAUGAGGAUCACCCAUGUCGUUAUAUGGGAGGAUAUACGUGGACCGUAGUCCGCGUAGAAGGCCUAAUUG [Mat - Same State 1 - Mod of JL - D23] (Eterna round: R96, puzzle: Same State 1) | 67.3 | 115 | 262 |  |  | 
9 | GAUUAACAUGAGGAUCACCCAUGUCGUUAUAUGGGAGGAUAUACGUGGACCGUAGUCCGCGUAGAAGGCCUAAUUG [Mat - Same State 1 - Mod of JL - D23] (puzzle: Same State 1) |  |  |  |  | 188 | 
10 | GCAACAGGGUGAGGAUAUCUAUGGACCGACCAUAGAGAAGGCACUGGAAACACAUGAGGAUCACCCAUGUGCCAAAGAACAGUA [Eternabot solution 9] (Eterna round: R96, puzzle: Same State NG 1) | 17.5 | 22.4 | 28.4 |  |  | 
11 | GCAGAACAUGAGGAUCACCCAUGUCUCUAAUAUUGAGGAUAUGGACACGGUAUAUCCGAACCAGAAGGCGAACUGC [SS1 Teenbexe 17] (puzzle: Same State 1) |  |  |  | 27.5 | 34 | 41.2
12 | GCAGGACAUGAGGAUCACCCAUGUUCAAAAUAUAGAGGAUAUGGAUACGGUAUAUCCGAACCAGAAGGCUACCUGC [SS1 Teenbexe 23] (puzzle: Same State 1) |  |  |  |  | 13.7 | 
13 | GCAGUACUAGCAGAGGAUAUGUCGAUAACGACAUGAGGAUCACCCAUGUGUACGGAAGUACUCAGACAGAAGGCUGAGUACUGCU [Same State 2 - Hyphema v.2] (puzzle: Same State 2) |  |  |  | 15.2 | 30.2 | 41.8
14 | GCAUCACAUGAGGAUCACCCAUGUCUUCGGAGCGGAGGAUAUGGUCACUGUAAACAGUGGCCAGAAGGCUGGAUGC [SS1 - Son of Teenbexe v3] (puzzle: Same State 1) |  |  |  |  | 26 | 
15 | GCCAACGCAUGAGGAUAUGGCACCUUAUUGGUGCCAGAAGGCAUGUCUAUUGACAUGAGGAUCACCCAUGUAUUAUAGUUGGCA [Fiskers NG1ss - 15] (Eterna round: R96, puzzle: Same State NG 1) | 114 | 369 | 882 |  |  | 
16 | GCCGCGUUUCGCGCCUACAUGAGGAUCACCCAUGUUUGUAGGCAGGAUAUCGCUUGCUUUGCGGGCGAGAAGGGCUGUUGUGGC [salish99_SSNG3_R04_018] (Eterna round: R96, puzzle: Same State NG 3) | 36.8 | 56.8 | 51.6 |  |  | 

Row | Sequence | apparent KD of MS2 coat protein (input ligand: FMN 200 uM) [nM] | apparent KD of MS2 coat protein [1] [nM] | apparent KD of MS2 coat protein (input ligand: none) [nM] | apparent KD of MS2 coat protein [2] [nM] | apparent KD of MS2 coat protein [3] [nM] | apparent KD of MS2 coat protein [4] [nM]
17 | GCCGGCUGGUGAGGAUAUGGCGCCUUGUUGGUGCCAGAAGGCAUGUCUAUUGACAUGAGGAUCACCCAUGUGUUGUCGUUGGCG [salish99_SSNG1_r04_612] (Eterna round: R96, puzzle: Same State NG 1) | 536 | 108 | 183 |  |  | 
18 | GCCGUAUAAACAUGAGGAUCACCCAUGUGCGCGAGAGCGAAUGAGGAUAUCGAUGGGUUUCCCGUCGAGAAGGCGUGGGUCGGC [JL SSNG3 3.96] (Eterna round: R96, puzzle: Same State NG 3) | 37.7 | 76.4 | 96.3 |  |  | 
19 | GCGAAGAGGUAAGGAUAUUCAUGGCGGAGACAUGAGGAUCACCCAUGUAGGAGACGAAAUCUAAGGGAGAAGGUACCAGGACGC [AK SSNG2-V2-14] (Eterna round: R96, puzzle: Same State NG 2) | 112 | 147 | 321 |  |  | 
20 | GCGAGCGUACUUGCAACAUGAGGAUCACCCAUGUUAACUGGACAGGAUAUGGUACCGUUUCGGUACCAGAAGGGUUCCUCCAUG [JL SSNG3 3.61] (Eterna round: R96, puzzle: Same State NG 3) | 160 | 134 | 135 |  |  | 
21 | GCGGAACCUAACAUGAGGAUCACCCAUGUUCCGGAAACGGCACAGGAUAUCUGUCCGAAAAGGUCAGAGAAGGGUGAAAACCGC [Fiskers NG3ss - 95] (Eterna round: R96, puzzle: Same State NG 3) | 131 | 307 | 390 |  |  | 
22 | GCGGAACGGGCCGACAUGAGGAUCACCCAUGUGGCCUCAUGUAAGGAUAUCGGGAAGAAGAAAACCGAGAAGGUACGGUGACGC [AK SSNG3-V2-31] (Eterna round: R96, puzzle: Same State NG 3) | 47.2 | 15.6 | 107 |  |  | 
23 | GCGUUUAACGUAGGAUAUCGAGCUACAUGAGGAUCACCCAUGUCUUUGUAAAGUUUUUUUAAUUCCGAGAAGGACGUAUUGCAU [JR_SSNG2_Sub073] (Eterna round: R96, puzzle: Same State NG 2) | 27.1 | 27.2 | 35.9 |  |  | 
24 | GCUACCAUUGAAGCCAACAUGAGGAUCACCCAUGUAUGUUGGUAGGAUAUCGAUUGCUUUGCGAUCGAGAAGGGCUAAGGUAGC [JL SSNG3 1.28] (Eterna round: R96, puzzle: Same State NG 3) | 52.6 | 48 | 45.1 |  |  | 
25 | GCUAGAAAUAAAGCCAACAUGAGGAUCACCCAUGUAUGUUGGUAGGAUAUCGUUUGCAAAGCAAACGAGAAGGGCUAAUCUAGC [Mat - Same State NG 3 - JL Mod - D65] (Eterna round: R96, puzzle: Same State NG 3) | 76.4 | 63.8 | 69.8 |  |  | 
26 | GCUAGAAUAAAUGCCUACAUGAGGAUCACCCAUGUAUGUAGGCAGGAUAUCGUUUGCAAAGCAAACGAGAAGGGCCUUACUAGC [Mat - Same State NG 3 - JL Mod - D29] (Eterna round: R96, puzzle: Same State NG 3) | 21.5 | 43 | 55.7 |  |  | 
27 | GCUAGAAUCAAAGCCAACAUGAGGAUCACCCAUGUAUGUUGGUAGGAUAUCGUUUGCUUUGCAAACGAGAAGGACCAAACUAGC [SameState NG3 #1] (Eterna round: R96, puzzle: Same State NG 3) | 30.2 | 75.3 | 87.1 |  |  | 
28 | GCUAGAAUUAAAGCCAACAUGAGGAUCACCCAUGUAUGUUGGCAGGAUAUCGUUUGCUUUGCAAACGAGAAGGGCUAAACUAGC [JL SSNG3 1.02] (Eterna round: R96, puzzle: Same State NG 3) | 114 | 121 | 182 |  |  | 
29 | GCUAGAAUUAAAGCCAACAUGAGGAUCACCCAUGUAUGUUGGUAGGAUAUCGUUUGCUUUGCAAACGAGAAGGGCUAAACUAGC [JL SSNG3 1.06] (Eterna round: R96, puzzle: Same State NG 3) | 78.3 | 58.5 | 73.1 |  |  | 
30 | GCUCGAAUCACAGCCAACAUGAGGAUCACCCAUGUAUGUUGGUAGGAUAUCGUUUCUAAGGGAAACGAGAAGGGCCGAACGAGC [SameState NG3 #10] (Eterna round: R96, puzzle: Same State NG 3) | 171 | 151 | 163 |  |  | 
31 | GCUCGACGUAUGGCCUACAUGAGGAUCACCCAUGUGACUGGGCAGGAUAUCUAGAUGCAGAAUGUAGAGAAGGGCCCGUCGAGC [SameState NG3 #48] (Eterna round: R96, puzzle: Same State NG 3) | 244 | 74 | 194 |  |  | 

— the supplement of paper PMC9170038
